Measurements from the RNAGym collection of RNA variant scans (doi:10.1101/gr.219683.116).

B1: mRNA-splicing (parent)
chain: AGUUGCUGCUGGGAGCUCCAGCACAGUGAAAUGGACAGAAGGGCAGAGCAA

Variants of: B1
Experiment: exon inclusion enrichment index; higher = more inclusion; WT1 exon 5 minigene, HEK293

| Variant | exon inclusion enrichment index |
| --- | --- |
| AGUUAGGGAUGGGAGCUCCAGCACAGUGAAAAUGACAGAAGGGCAGAGCAA [G5A C6G U7G C9A U32A G33U] | 0.00206 |
| AGUUAGGGAUGGGAGCUCCAGCACAGUGAAAAAGACAGAAGGGCAGAGCAA [G5A C6G U7G C9A U32A G33A] | 0.00102 |
| AGUUAGGUAUGGGAGCUCCAGCACAGUGAAAUGGACAGAAGGGCAGAGCAA [G5A C6G U7G G8U C9A] | 0.00192 |
| AGUUAGGUUUGGGAGCUCCAGCACAGUGAAAUGGACAGAAGGGCAGAGCAA [G5A C6G U7G G8U C9U] | 0.00149 |
| AGUUAGGUGUGGGAGCUCCAGCACAGUGAAAUGGACAGAAGGGCAGAGCAA [G5A C6G U7G G8U C9G] | 0.00173 |
| AGUUAGGGAUGGGAGCUCCAGCACAGAGAAAUGGACAGAAGGGCAGAGCAA [G5A C6G U7G C9A U27A] | 0.00261 |
| AGUUAGGGAUGGGAGCUCCAGCACAGCGAAAUGGACAGAAGGGCAGAGCAA [G5A C6G U7G C9A U27C] | 0.00674 |
| AGUUAGGGAUGGGAGCUCCAGCACAGGGAAAUGGACAGAAGGGCAGAGCAA [G5A C6G U7G C9A U27G] | 0.000925 |
| AGUUAUUCUCGGGAGCUCCAGCACAGUGAAAUGGACAGAAGGGCAGAGCAA [G5A C6U G8C C9U U10C] | 0.807 |
| AGUUAGGGAUGGGAGCAUCAGCACAGUGAAAUGGACAGAAGGGCAGAGCAA [G5A C6G U7G C9A U17A C18U] | 0.00863 |
| AGUUAGGGAUGGGAGCAACAGCACAGUGAAAUGGACAGAAGGGCAGAGCAA [G5A C6G U7G C9A U17A C18A] | 0.00127 |
| AGUUAGGGAUGGGAGCAGCAGCACAGUGAAAUGGACAGAAGGGCAGAGCAA [G5A C6G U7G C9A U17A C18G] | 0.00136 |
| AGUUAUUGCUGGGAGCUCCAGCACAGUGAAAUGGACAGAAGGGCAGAGCAA [G5A C6U] | 0.0142 |
| AGUUAGGGAGUGGAGCUCCAGCACAGUGAAAUGGACAGAAGGGCAGAGCAA [G5A C6G U7G C9A U10G G11U] | 0.00152 |
| AGUUAGGGAGCGGAGCUCCAGCACAGUGAAAUGGACAGAAGGGCAGAGCAA [G5A C6G U7G C9A U10G G11C] | 0.00673 |
| AGUUAGGGAGAGGAGCUCCAGCACAGUGAAAUGGACAGAAGGGCAGAGCAA [G5A C6G U7G C9A U10G G11A] | 0.00349 |
| AGUUAGGGAUGGGAGCUCCAGCACAGGAAAAUGGACAGAAGGGCAGAGCAA [G5A C6G U7G C9A U27G G28A] | 0.00077 |
| AGUUAGGGAUGGGAGCUCCAGCACAGGUAAAUGGACAGAAGGGCAGAGCAA [G5A C6G U7G C9A U27G G28U] | 0.0007 |
| AGUUAGGGAUGGGAGCUCCAGCACAGGCAAAUGGACAGAAGGGCAGAGCAA [G5A C6G U7G C9A U27G G28C] | 0.00084 |
| AGUUAGGGAUGGGAGCUCCAGCACAGUGAAAUGGACAGAAGGCAAGAGCAA [G5A C6G U7G C9A G43C C44A] | 0.0166 |
| AGUUAGGGAUGGGAGCUCCAGCACAGUGAAAUGGACAGAAGGCGAGAGCAA [G5A C6G U7G C9A G43C C44G] | 0.0277 |
| AGUUAGGGAUGGGAGCUCCAGCACAGUGAAAUGGACAGAAGGCUAGAGCAA [G5A C6G U7G C9A G43C C44U] | 0.000823 |
| AGUUAUUUUUGGGAGCUCCAGCACAGUGAAAUGGACAGAAGGGCAGAGCAA [G5A C6U G8U C9U] | 0.0357 |
| AGUUAUUUAUGGGAGCUCCAGCACAGUGAAAUGGACAGAAGGGCAGAGCAA [G5A C6U G8U C9A] | 0.038 |
| AGUUAGGGAACGGAGCUCCAGCACAGUGAAAUGGACAGAAGGGCAGAGCAA [G5A C6G U7G C9A U10A G11C] | 0.0223 |
| AGUUAGGGAAUGGAGCUCCAGCACAGUGAAAUGGACAGAAGGGCAGAGCAA [G5A C6G U7G C9A U10A G11U] | 0.00545 |

| Variant | exon inclusion enrichment index |
| --- | --- |
| AGUUAGGGAAAGGAGCUCCAGCACAGUGAAAUGGACAGAAGGGCAGAGCAA [G5A C6G U7G C9A U10A G11A] | 0.00112 |
| AGUUAGGGUCGGGAGCUCCAGCACAGUGAAAUGGACAGAAGGGCAGAGCAA [G5A C6G U7G C9U U10C] | 0.00564 |
| AGUUAGGGUGGGGAGCUCCAGCACAGUGAAAUGGACAGAAGGGCAGAGCAA [G5A C6G U7G C9U U10G] | 0.493 |
| AGUUAGGGUAGGGAGCUCCAGCACAGUGAAAUGGACAGAAGGGCAGAGCAA [G5A C6G U7G C9U U10A] | 0.00106 |
| AGUUAGGGAGGGGAGCUCCAGCACAGUGAAAUGGACAGAAGGGCAGAGCAA [G5A C6G U7G C9A U10G] | 0.00589 |
| AGUUAGGGAAGGGAGCUCCAGCACAGUGAAAUGGACAGAAGGGCAGAGCAA [G5A C6G U7G C9A U10A] | 0.00068 |
| AGUUAGGGACGGGAGCUCCAGCACAGUGAAAUGGACAGAAGGGCAGAGCAA [G5A C6G U7G C9A U10C] | 0.00449 |
| AGUUAGGGAUGGGAGCUCCAGCACAGUGAAAUGGACAGAAGGGCACCGCAA [G5A C6G U7G C9A G46C A47C] | 0.00161 |
| AGUUAGGGAUGGGAGCUCCAGCACAGUGAAAUGGACAGAAGGGCACGGCAA [G5A C6G U7G C9A G46C A47G] | 0.00214 |
| AGUUAGGGAUGGGAGCUCCAGCACAGUGAAAUGGACAGAAGGGCACUGCAA [G5A C6G U7G C9A G46C A47U] | 0.00364 |
| AGUUAGGGAUGGGAGCUCCAGCACAGUGAAAUGGACAGAAGGUCAGAGCAA [G5A C6G U7G C9A G43U] | 0.00185 |
| AGUUAGGGAUGGGAGCCGCAGCACAGUGAAAUGGACAGAAGGGCAGAGCAA [G5A C6G U7G C9A U17C C18G] | 0.00304 |
| AGUUAGGGAUGGGAGCCACAGCACAGUGAAAUGGACAGAAGGGCAGAGCAA [G5A C6G U7G C9A U17C C18A] | 0.00107 |
| AGUUAGGGAUGGGAGCCUCAGCACAGUGAAAUGGACAGAAGGGCAGAGCAA [G5A C6G U7G C9A U17C C18U] | 0.00126 |
| AGUUAGGGAUGGGAGCGACAGCACAGUGAAAUGGACAGAAGGGCAGAGCAA [G5A C6G U7G C9A U17G C18A] | 0.00242 |
| AGUUAGGGAUGGGAGCGUCAGCACAGUGAAAUGGACAGAAGGGCAGAGCAA [G5A C6G U7G C9A U17G C18U] | 0.00166 |
| AGUUAGGGAUGGGAGCGGCAGCACAGUGAAAUGGACAGAAGGGCAGAGCAA [G5A C6G U7G C9A U17G C18G] | 0.00151 |
| AGUUAGGGGUGGGAGCUCCAGCACAGUGAAAUGGACAGAAGGGCAGAGCAA [G5A C6G U7G C9G] | 0.00209 |
| AGUUAGGGUUGGGAGCUCCAGCACAGUGAAAUGGACAGAAGGGCAGAGCAA [G5A C6G U7G C9U] | 0.00241 |
| AGUUAGGGAUGGGAGCUCCAGCACAGUGAAACAGACAGAAGGGCAGAGCAA [G5A C6G U7G C9A U32C G33A] | 0.00102 |
| AGUUAGGGAUGGGAGCUCCAGCACAGUGAAACCGACAGAAGGGCAGAGCAA [G5A C6G U7G C9A U32C G33C] | 0.00477 |
| AGUUAGGGAUGGGAGCUCCAGCACAGUGAAACUGACAGAAGGGCAGAGCAA [G5A C6G U7G C9A U32C G33U] | 0.00177 |
| AGUUAGGGAUGGGAGCUCCAGCACAGCUAAAUGGACAGAAGGGCAGAGCAA [G5A C6G U7G C9A U27C G28U] | 0.00816 |
| AGUUAGGGAUGGGAGCUCCAGCACAGCCAAAUGGACAGAAGGGCAGAGCAA [G5A C6G U7G C9A U27C G28C] | 0.0122 |
| AGUUAGGGAUGGGAGCUCCAGCACAGCAAAAUGGACAGAAGGGCAGAGCAA [G5A C6G U7G C9A U27C G28A] | 0.00952 |
